Measured values published in the supplement of paper PMC9112550, “Optimization of the antimicrobial peptide Bac7 by deep mutational scanning” (BMC Biology, 2022).

tested on: Escherichia coli TOP10; experiment: shrunken log2 fold change of peptide-encoding DNA abundance (4.5 h post-induction vs induction); higher = less antimicrobial activity (less host growth inhibition); details: time post-induction: 4.5 h; library: site-saturation at positions 5, 18, 19, 20
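Further: peptides expressed intracellularly from a pBAD plasmid library in pooled LB shake-flask culture, induced with 0.3% L-arabinose, DNA abundance read by NGS, three biological replicates, DESeq2 with apeglm shrinkage.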

Point of comparison: RRIRFRPPRLPRPRPRPNNMPRP, “shrunken log2 fold change” value -0.699. Against it:
- RRIRIRPPRLPRPRPRPHKAPRP — higher, -0.0133
- RRIRGRPPRLPRPRPRPPANPRP — higher, 1.12
- RRIRKRPPRLPRPRPRPMTKPRP — higher, 0.397
- RRIRVRPPRLPRPRPRPKPLPRP — higher, 0.196
- RRIRHRPPRLPRPRPRPNVVPRP — higher, 0.015
- RRIRTRPPRLPRPRPRPCNRPRP — higher, -0.144
- RRIRKRPPRLPRPRPRPHCDPRP — higher, 0.266
- RRIRMRPPRLPRPRPRPTRMPRP — higher, 0.685
- RRIRPRPPRLPRPRPRPPCFPRP — higher, 0.307
- RRIRCRPPRLPRPRPRPPLKPRP — higher, 0.353
- RRIRHRPPRLPRPRPRPNFIPRP — higher, -0.0658
- RRIRFRPPRLPRPRPRPNHHPRP — lower, -1.02
- RRIRPRPPRLPRPRPRPTPDPRP — higher, 0.356
- RRIRFRPPRLPRPRPRPHRSPRP — higher, -0.222
- RRIRIRPPRLPRPRPRPSGTPRP — higher, -0.0278
- RRIRSRPPRLPRPRPRPTEIPRP — higher, -0.0163
- RRIRDRPPRLPRPRPRPYCVPRP — higher, 0.00706
- RRIRPRPPRLPRPRPRPINSPRP — higher, -0.236
- RRIRARPPRLPRPRPRPKERPRP — higher, 0.415
- RRIRRRPPRLPRPRPRPEQPPRP — higher, 0.389
- RRIRTRPPRLPRPRPRPDMSPRP — higher, -0.0305
- RRIRERPPRLPRPRPRPWHKPRP — higher, -0.236
- RRIRIRPPRLPRPRPRPNPAPRP — higher, 0.0171
- RRIRARPPRLPRPRPRPFMSPRP — higher, -0.0065
- RRIRCRPPRLPRPRPRPLGCPRP — higher, 0.347
- RRIRKRPPRLPRPRPRPYQYPRP — higher, -0.0576
- RRIRPRPPRLPRPRPRPLQPPRP — higher, 0.273
- RRIRDRPPRLPRPRPRPSTNPRP — higher, -0.16
- RRIRGRPPRLPRPRPRPTKHPRP — higher, 0.385
- RRIRCRPPRLPRPRPRPEIFPRP — higher, -0.422
- RRIRERPPRLPRPRPRPFMKPRP — higher, -0.0971
- RRIRVRPPRLPRPRPRPDNYPRP — higher, -0.222
- RRIRPRPPRLPRPRPRPEQRPRP — higher, 0.124
- RRIRRRPPRLPRPRPRPDTVPRP — higher, 0.0777
- RRIRFRPPRLPRPRPRPLHVPRP — higher, -0.208
- RRIRQRPPRLPRPRPRPQWIPRP — higher, -0.0848
- RRIRSRPPRLPRPRPRPYQVPRP — higher, -0.0683
- RRIRPRPPRLPRPRPRPHLNPRP — within 0.2 log units, -0.517
- RRIRARPPRLPRPRPRPAHAPRP — higher, 1.07
- RRIRKRPPRLPRPRPRPAWCPRP — higher, 0.0965
- RRIRRRPPRLPRPRPRPGKSPRP — higher, 0.0256
- RRIRFRPPRLPRPRPRPKWMPRP — higher, -0.235
- RRIRVRPPRLPRPRPRPCDKPRP — higher, -0.323
- RRIRRRPPRLPRPRPRPCETPRP — higher, 0.0583
- RRIRERPPRLPRPRPRPELAPRP — higher, 0.161
- RRIRLRPPRLPRPRPRPVECPRP — higher, 0.0709
- RRIRKRPPRLPRPRPRPAMPPRP — higher, 0.788
- RRIRDRPPRLPRPRPRPFKIPRP — higher, -0.249
- RRIRPRPPRLPRPRPRPLYPPRP — higher, -0.244
- RRIRWRPPRLPRPRPRPIDAPRP — higher, 0.0128
- RRIRKRPPRLPRPRPRPAQSPRP — higher, 0.0619
- RRIRSRPPRLPRPRPRPLAAPRP — higher, 0.562
- RRIRQRPPRLPRPRPRPGFEPRP — higher, 0.809
- RRIRIRPPRLPRPRPRPKIVPRP — within 0.2 log units, -0.716
- RRIRCRPPRLPRPRPRPRDCPRP — higher, 0.313
- RRIRDRPPRLPRPRPRPREHPRP — higher, -0.118
- RRIRWRPPRLPRPRPRPEEWPRP — higher, -0.0123
- RRIRFRPPRLPRPRPRPRFLPRP — higher, -0.421
- RRIRVRPPRLPRPRPRPLPNPRP — higher, -0.0957
- RRIRRRPPRLPRPRPRPFWTPRP — higher, 0.00443
- RRIRKRPPRLPRPRPRPSMDPRP — higher, 0.0069
- RRIRTRPPRLPRPRPRPMQHPRP — higher, -0.112
- RRIRNRPPRLPRPRPRPSLNPRP — higher, -0.335
- RRIRLRPPRLPRPRPRPNMNPRP — within 0.2 log units, -0.68
- RRIRVRPPRLPRPRPRPLWFPRP — higher, 0.125
- RRIRFRPPRLPRPRPRPKEWPRP — higher, -0.00364
- RRIRVRPPRLPRPRPRPRFWPRP — higher, 0.64
- RRIRPRPPRLPRPRPRPWVGPRP — higher, 0.0889
- RRIRERPPRLPRPRPRPVVPPRP — higher, -0.158
- RRIRERPPRLPRPRPRPNPKPRP — higher, -0.0343
- RRIRLRPPRLPRPRPRPQTWPRP — higher, 0.0171
- RRIRIRPPRLPRPRPRPEYAPRP — higher, -0.0426
- RRIRPRPPRLPRPRPRPLEIPRP — higher, -0.199
- RRIRWRPPRLPRPRPRPIVIPRP — higher, -0.353
- RRIRQRPPRLPRPRPRPQVSPRP — higher, 0.301
- RRIRLRPPRLPRPRPRPFKNPRP — higher, -0.499
- RRIRPRPPRLPRPRPRPIRCPRP — higher, 0.125
- RRIRARPPRLPRPRPRPDWVPRP — higher, 0.517
- RRIRARPPRLPRPRPRPRTQPRP — higher, 0.634
- RRIRIRPPRLPRPRPRPILEPRP — higher, 0.0083
- RRIRGRPPRLPRPRPRPPRCPRP — higher, 0.951
- RRIRIRPPRLPRPRPRPVHYPRP — higher, -0.497
- RRIRPRPPRLPRPRPRPFFMPRP — higher, -0.196
- RRIRFRPPRLPRPRPRPMFSPRP — higher, -0.0614
- RRIRDRPPRLPRPRPRPSYRPRP — higher, 0.0164
- RRIRDRPPRLPRPRPRPVYRPRP — higher, -0.0426
- RRIRARPPRLPRPRPRPFNMPRP — higher, -0.201
- RRIRYRPPRLPRPRPRPFSIPRP — higher, -0.000407
- RRIRCRPPRLPRPRPRPFTEPRP — higher, -0.28
- RRIRTRPPRLPRPRPRPKELPRP — higher, 0.16
- RRIRIRPPRLPRPRPRPHWKPRP — higher, -0.0691
- RRIRLRPPRLPRPRPRPAERPRP — higher, 0.139
- RRIRWRPPRLPRPRPRPEWHPRP — higher, 0.595
- RRIRRRPPRLPRPRPRPCNKPRP — higher, -0.137
- RRIRTRPPRLPRPRPRPGADPRP — higher, 0.301
- RRIRRRPPRLPRPRPRPDWVPRP — higher, 0.037
- RRIRWRPPRLPRPRPRPMDIPRP — higher, -0.175
- RRIRYRPPRLPRPRPRPPNSPRP — higher, -0.384
- RRIRHRPPRLPRPRPRPYTQPRP — within 0.2 log units, -0.711
- RRIRLRPPRLPRPRPRPHYGPRP — higher, -0.232
- RRIRPRPPRLPRPRPRPVPDPRP — higher, 0.00557
- RRIRGRPPRLPRPRPRPNAVPRP — higher, 0.924
- RRIRNRPPRLPRPRPRPWDTPRP — higher, -0.0124
- RRIRVRPPRLPRPRPRPQSEPRP — higher, -0.107
- RRIRARPPRLPRPRPRPGLDPRP — higher, 0.419
- RRIRDRPPRLPRPRPRPSHNPRP — higher, -0.314
- RRIRRRPPRLPRPRPRPWTIPRP — higher, -0.189
- RRIRRRPPRLPRPRPRPMMFPRP — higher, 0.284
- RRIRGRPPRLPRPRPRPQWMPRP — higher, 0.115
- RRIRDRPPRLPRPRPRPNQNPRP — higher, 0.0279
- RRIRTRPPRLPRPRPRPVAIPRP — higher, -0.168
- RRIRLRPPRLPRPRPRPNLDPRP — higher, -0.18
- RRIRYRPPRLPRPRPRPQYTPRP — lower, -1.34
- RRIRNRPPRLPRPRPRPPQCPRP — higher, -0.000221
- RRIRERPPRLPRPRPRPQHWPRP — higher, -0.046
- RRIRNRPPRLPRPRPRPIAIPRP — higher, -0.0153
- RRIRERPPRLPRPRPRPIAKPRP — higher, 0.0393
- RRIRMRPPRLPRPRPRPEYHPRP — higher, -0.00495
- RRIRCRPPRLPRPRPRPLMVPRP — within 0.2 log units, -0.519
- RRIRMRPPRLPRPRPRPRNLPRP — higher, 0.0196
- RRIRDRPPRLPRPRPRPQPEPRP — higher, 0.106
- RRIRIRPPRLPRPRPRPQQTPRP — higher, -0.169
- RRIRVRPPRLPRPRPRPTYQPRP — higher, -0.388
- RRIRDRPPRLPRPRPRPWDGPRP — higher, -0.0761
